The values that follow come from CN116554322A (HEJING MEDICAL TECH SHANGHAI CO LTD, dated 2023).

The target of test [1] is T1, 人IL-18Rβ蛋白 (IL-18Rβ antigen) (human).
T1 sequence (O95256 whole entry, species assumed, looked up): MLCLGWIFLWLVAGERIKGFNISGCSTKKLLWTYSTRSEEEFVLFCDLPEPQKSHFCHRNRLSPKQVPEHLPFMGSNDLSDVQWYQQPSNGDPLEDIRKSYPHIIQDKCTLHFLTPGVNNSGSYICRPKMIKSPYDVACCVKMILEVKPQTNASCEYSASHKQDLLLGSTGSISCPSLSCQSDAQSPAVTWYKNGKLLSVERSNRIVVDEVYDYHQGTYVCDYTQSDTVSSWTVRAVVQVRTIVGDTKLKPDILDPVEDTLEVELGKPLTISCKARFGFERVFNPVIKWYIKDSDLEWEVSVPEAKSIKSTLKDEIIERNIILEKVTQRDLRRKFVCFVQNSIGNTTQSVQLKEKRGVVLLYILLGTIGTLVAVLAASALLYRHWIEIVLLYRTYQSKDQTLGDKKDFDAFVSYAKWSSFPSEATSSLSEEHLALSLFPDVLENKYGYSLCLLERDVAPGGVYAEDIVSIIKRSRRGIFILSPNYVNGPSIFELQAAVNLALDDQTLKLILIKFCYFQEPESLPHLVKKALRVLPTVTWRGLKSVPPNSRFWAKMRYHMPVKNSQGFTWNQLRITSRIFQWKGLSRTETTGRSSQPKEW
Description: SPR (Biacore 8K), Fab captured; ratio of kd, the reference itself.

For test [2] the target is unchanged. Description: SPR (Biacore 8K), secreted Fab captured on SASA sensor, antigen injected, 1:1 fit. In general terms: SPR reads the build-up and loss of mass on a sensor chip optically.
Test [3] has as its target T2, 人IL-18Rβ蛋白 (IL-18Rβ antigen) (human).
T2 chain: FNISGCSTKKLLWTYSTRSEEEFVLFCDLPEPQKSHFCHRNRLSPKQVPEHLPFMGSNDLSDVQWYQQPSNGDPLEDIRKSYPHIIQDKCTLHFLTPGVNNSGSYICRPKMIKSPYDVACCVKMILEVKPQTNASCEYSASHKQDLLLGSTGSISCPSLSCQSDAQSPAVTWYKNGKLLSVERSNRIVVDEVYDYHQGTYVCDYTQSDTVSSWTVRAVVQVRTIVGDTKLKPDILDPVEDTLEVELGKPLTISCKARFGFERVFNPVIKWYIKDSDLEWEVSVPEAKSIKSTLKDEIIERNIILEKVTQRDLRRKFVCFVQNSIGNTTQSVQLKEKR
Description: SPR (Biacore 8K), Fab captured; ratio of kd of C056-WT to kd of the clone.

In test [4] the target is T2, 人IL-18Rβ蛋白 (IL-18Rβ antigen). Nature of the test: SPR (Biacore 8K), secreted Fab captured on SASA sensor, antigen injected, 1:1 fit.
For test [5], the target named is T3, IL-18Rβ on KG-1 cells and human PBMC (human, UniProt O95256 20-599).
T3 sequence (looked up): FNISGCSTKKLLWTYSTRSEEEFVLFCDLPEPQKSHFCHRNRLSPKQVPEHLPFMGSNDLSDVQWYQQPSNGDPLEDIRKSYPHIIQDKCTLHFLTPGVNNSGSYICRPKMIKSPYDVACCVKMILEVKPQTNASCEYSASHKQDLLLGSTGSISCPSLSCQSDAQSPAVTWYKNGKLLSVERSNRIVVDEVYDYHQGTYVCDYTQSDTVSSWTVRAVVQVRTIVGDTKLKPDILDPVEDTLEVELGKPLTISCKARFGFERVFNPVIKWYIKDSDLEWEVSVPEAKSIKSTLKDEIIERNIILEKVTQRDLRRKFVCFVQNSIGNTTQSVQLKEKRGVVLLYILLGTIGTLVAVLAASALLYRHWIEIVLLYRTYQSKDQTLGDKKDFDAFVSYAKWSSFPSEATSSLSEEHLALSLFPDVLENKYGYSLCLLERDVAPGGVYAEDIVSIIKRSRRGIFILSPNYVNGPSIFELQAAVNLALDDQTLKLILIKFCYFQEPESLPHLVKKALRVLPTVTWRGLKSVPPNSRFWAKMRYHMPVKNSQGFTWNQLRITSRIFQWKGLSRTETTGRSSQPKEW
Nature of the test: cell-based or functional assay.

Like-named read-outs stand apart in the source and are kept apart here.

B1: C056-WT Fab (wild-type anti-IL-18Rβ antibody) (Fab, V domains shown)
VH: EVQLVESGGGLVQPGGSLRLSCAASGFNLYYSSMHWVRQAPGKGLEWVASIYSSNGRTYYADSVKGRFTISADTSKNTAYLQMNSLRAEDTAVYYCARSSFSHGYGWYGLDYWGQGTLVTVSS
VL: DIQMTQSPSSLSASVGDRVTITCRASQSVSSAVAWYQQKPGKAPKLLIYSASSLYSGVPSRFSGSRSGTDFTLTISSLQPEDFATYYCQQYGYHDAGLITFGQGTKVEIK
As for B1, in test [1], the 比值(kd) was found to be 1. Besides, in test [2], the Kd (in general, the free concentration of one partner at which half of the binding sites on the other are occupied at equilibrium, for simple one-to-one binding) is 17.8 nM; the koff (in general, the rate constant with which the complex falls apart) is 0.00119 s⁻¹; the kon (in general, a measure of how fast the partners come together) was determined as 66600 M⁻¹ s⁻¹.

B2: A036 Fab clone (Fab, V domains shown)
VH: EVQLVESGGGLVQPGGSLRLSCAASGINLYYSSMHWVRQAPGKGLEWVASIYSSNGRTYYADSVKGRFTISADTSKNTAYLQMNSLRAEDTAVYYCARASFSHGYGWYGLDYWGQGTLVTVSS
VL: DIQMTQSPSSLSASVGDRVTITCRASQSVSSAVDWYQQKPGKAPKLLIYSASSLYSGVPSRFSGSRSGTDFTLTISSLQPEDFATYYCQQYGYHDAGLITFGQGTKVEIK
With B2, the “比值(kd)” value in test [3] was determined as 17.2. Further, in test [4], the Kd came out at 0.648 nM, the koff came out at 6.91e-05 s⁻¹ and the kon is 107000 M⁻¹ s⁻¹.

B3: A038 Fab clone (Fab, V domains shown)
VH: EVQLVESGGGLVQPGGSLRLSCAASGINLYYSSMHWVRQAPGKGLEWVASIYSSNGRTYYADSVKGRFTISADTSKNTAYLQMNSLRAEDTAVYYCARSSFSHGYGWYGLDYWGQGTLVTVSS
VL: DIQMTQSPSSLSASVGDRVTITCRASQSVSSAVEWYQQKPGKAPKLLIYSASSLYSGVPSRFSGSRSGTDFTLTISSLQPEDFATYYCQQYGYHDAGLITFGQGTKVEIK
notes: Mutations against C056-WT: VL-A34E/VH-F27I
Consider B3, for which, in test [3], the “比值(kd)” value was found to be 21. In test [4], this molecule had a dissociation constant Kd of 0.725 nM, an off-rate constant (koff) of 5.67e-05 s⁻¹ and an on-rate constant (kon) of 78200 M⁻¹ s⁻¹.

B4: A035 full-length IgG (antibody, V domains shown)
VH: EVQLVESGGGLVQPGGSLRLSCAASGINLYYSSMHWVRQAPGKGLEWVASIYSSNGRTYYADSVKGRFTISADTSKNTAYLQMNSLRAEDTAVYYCARASFSHGYGWYGLDYWGQGTLVTVSS
VL: DIQMTQSPSSLSASVGDRVTITCRASQSVSFAVEWYQQKPGKAPKLLIYSASSLYSGVPSRFSGSRSGTDFTLTISSLQPEDFATYYCQQYGYHDAGLITFGQGTKVEIK
As for B4, in test [5], the “IC50(nM), inhibition of IL-18-stimulated IFN-γ release in KG-1 cells” value (from here on “IC50(nM), inhibition”) is 0.26 nM and the “potency relative to WT antibody, KG-1 IFN-γ assay” value (“potency relative to WT antibody” for short) was approximately 20 fold.

B5: A037 full-length IgG (antibody, V domains shown)
VH: EVQLVESGGGLVQPGGSLRLSCAASGLNLYYSSMHWVRQAPGKGLEWVASIYSSNGRTYYADSVKGRFTISADTSKNTAYLQMNSLRAEDTAVYYCARSSFSHGYGWYGLDYWGQGTLVTVSS
VL: DIQMTQSPSSLSASVGDRVTITCRASQSVSFAVDWYQQKPGKAPKLLIYSASSLYSGVPSRFSGSRSGTDFTLTISSLQPEDFATYYCQQYGYHDAGLITFGQGTKVEIK
B5: in test [5], the “IC50(nM), inhibition” value came out at 0.27 nM and the “potency relative to WT antibody” value is approximately 20 fold.

B6: A041 Fab clone (Fab, V domains shown)
VH: EVQLVESGGGLVQPGGSLRLSCAASGVNLYYSSMHWVRQAPGKGLEWVASIYSSNGRTYYADSVKGRFTISADTSKNTAYLQMNSLRAEDTAVYYCARASFSHGYGWYGLDYWGQGTLVTVSS
VL: DIQMTQSPSSLSASVGDRVTITCRASQSVSFAVDWYQQKPGKAPKLLIYSASSLYSGVPSRFSGSRSGTDFTLTISSLQPEDFATYYCQQYGYHDAGLITFGQGTKVEIK
With B6, the “比值(kd)” value in test [3] was determined as 18.7. In addition, in test [4], the dissociation constant Kd was 0.415 nM, the koff was 6.35e-05 s⁻¹ and the kon was 153000 M⁻¹ s⁻¹.

B7: A039 Fab clone (Fab, V domains shown)
VH: EVQLVESGGGLVQPGGSLRLSCAASGINLYYSSMHWVRQAPGKGLEWVASIYSSNGRTYYADSVKGRFTISADTSKNTAYLQMNSLRAEDTAVYYCARSSFSHGYGWYGLDYWGQGTLVTVSS
VL: DIQMTQSPSSLSASVGDRVTITCRASQSVSSAVDWYQQKPGKAPKLLIYSASSLYSGVPSRFSGSRSGTDFTLTISSLQPEDFATYYCQQYGYHDAGLITFGQGTKVEIK
notes: Mutations against C056-WT: VL-A34D/VH-F27I
For B7, the “比值(kd)” value in test [3] came to 39.7. Besides, in test [4], the dissociation constant Kd was 0.26 nM, the koff worked out at 3e-05 s⁻¹ and the association rate constant (kon) came out at 115000 M⁻¹ s⁻¹.

B8: A035 Fab clone (Fab, V domains shown)
VH: EVQLVESGGGLVQPGGSLRLSCAASGINLYYSSMHWVRQAPGKGLEWVASIYSSNGRTYYADSVKGRFTISADTSKNTAYLQMNSLRAEDTAVYYCARASFSHGYGWYGLDYWGQGTLVTVSS
VL: DIQMTQSPSSLSASVGDRVTITCRASQSVSFAVEWYQQKPGKAPKLLIYSASSLYSGVPSRFSGSRSGTDFTLTISSLQPEDFATYYCQQYGYHDAGLITFGQGTKVEIK
notes: Mutations against C056-WT: VL-S31F/VL-A34E/VH-F27I/VH-S99A
For B8, in test [3], the “比值(kd)” value was determined as 37.3. In test [4], this molecule yielded a Kd of 0.224 nM, a dissociation rate constant (koff) of 3.19e-05 s⁻¹ and an association rate constant (kon) of 143000 M⁻¹ s⁻¹.

B9: A040 Fab clone (Fab, V domains shown)
VH: EVQLVESGGGLVQPGGSLRLSCAASGLNLYYSSMHWVRQAPGKGLEWVASIYSSNGRTYYADSVKGRFTISADTSKNTAYLQMNSLRAEDTAVYYCARSSFSHGYGWYGLDYWGQGTLVTVSS
VL: DIQMTQSPSSLSASVGDRVTITCRASQSVSSAVEWYQQKPGKAPKLLIYSASSLYSGVPSRFSGSRSGTDFTLTISSLQPEDFATYYCQQYGYHDAGLITFGQGTKVEIK
In the case of B9, the “比值(kd)” value in test [3] is 14.9. In test [4], this molecule displayed a Kd of 1.04 nM, a koff of 8e-05 s⁻¹ and a kon of 77000 M⁻¹ s⁻¹.

B10: A037 Fab clone (Fab, V domains shown)
VH: EVQLVESGGGLVQPGGSLRLSCAASGLNLYYSSMHWVRQAPGKGLEWVASIYSSNGRTYYADSVKGRFTISADTSKNTAYLQMNSLRAEDTAVYYCARSSFSHGYGWYGLDYWGQGTLVTVSS
VL: DIQMTQSPSSLSASVGDRVTITCRASQSVSFAVDWYQQKPGKAPKLLIYSASSLYSGVPSRFSGSRSGTDFTLTISSLQPEDFATYYCQQYGYHDAGLITFGQGTKVEIK
notes: Mutations against C056-WT: VL-S31F/VL-A34D/VH-F27L
For B10, the “比值(kd)” value in test [3] was 1190. For the same molecule, in test [4], the equilibrium dissociation constant (Kd) was determined as 0.00847 nM, the off-rate (koff) amounted to 1e-06 s⁻¹ and the kon came out at 118000 M⁻¹ s⁻¹.

B11: A039 full-length IgG (antibody, V domains shown)
VH: EVQLVESGGGLVQPGGSLRLSCAASGINLYYSSMHWVRQAPGKGLEWVASIYSSNGRTYYADSVKGRFTISADTSKNTAYLQMNSLRAEDTAVYYCARSSFSHGYGWYGLDYWGQGTLVTVSS
VL: DIQMTQSPSSLSASVGDRVTITCRASQSVSSAVDWYQQKPGKAPKLLIYSASSLYSGVPSRFSGSRSGTDFTLTISSLQPEDFATYYCQQYGYHDAGLITFGQGTKVEIK
Turning to B11, in test [5], the “IC50(nM), inhibition” value was determined as 0.59 nM and the “potency relative to WT antibody” value is approximately 20 fold.

B12: A042 Fab clone (Fab, V domains shown)
VH: EVQLVESGGGLVQPGGSLRLSCAASGLNLYYSSMHWVRQAPGKGLEWVASIYSSNGRTYYADSVKGRFTISADTSKNTAYLQMNSLRAEDTAVYYCARASFSHGYGWYGLDYWGQGTLVTVSS
VL: DIQMTQSPSSLSASVGDRVTITCRASQSVSSAVEWYQQKPGKAPKLLIYSASSLYSGVPSRFSGSRSGTDFTLTISSLQPEDFATYYCQQYGYHDAGLITFGQGTKVEIK
B12: in test [3], the “比值(kd)” value worked out at 11.2. In test [4], this molecule gave a Kd of 1.34 nM, a koff of 0.000106 s⁻¹ and a kon of 79000 M⁻¹ s⁻¹.
